Measured values taken from US20110064733A1.

Assays:
[1] = molecular target: Muc1 mucin bearing the CA6 sialoglycotope (DS6 antigen), as expressed by CA6-positive human tumour cell lines (human) (UniProt P15941); assay: flow cytometry on KB cells
[2] = molecular target: Muc1 mucin bearing the CA6 sialoglycotope (DS6 antigen), as expressed by CA6-positive human tumour cell lines (human) (UniProt P15941); assay: flow cytometry on HeLa cells
[3] = molecular target: Muc1 mucin bearing the CA6 sialoglycotope (DS6 antigen), as expressed by CA6-positive human tumour cell lines (human) (UniProt P15941); assay: flow cytometry on MCF7 cells
[4] = molecular target: Muc1 mucin bearing the CA6 sialoglycotope (DS6 antigen), as expressed by CA6-positive human tumour cell lines (human) (UniProt P15941); assay: flow cytometry on BT549 cells
[5] = molecular target: Muc1 mucin bearing the CA6 sialoglycotope (DS6 antigen), as expressed by CA6-positive human tumour cell lines (human) (UniProt P15941); assay: flow cytometry on CaOV3 cells

CM1 antibody (Muc1 VNTR antibody)
MMF (maximum mean relative fluorescence) (relative fluorescence) [1]: 338
MMF (maximum mean relative fluorescence) (relative fluorescence) [2]: 335
MMF (maximum mean relative fluorescence) (relative fluorescence) [3]: 1020
MMF (maximum mean relative fluorescence) (relative fluorescence) [4]: 188
MMF (maximum mean relative fluorescence) (relative fluorescence) [5]: 1030
